For 54 variants, self-cleavage results are on record in the RNAGym collection of RNA variant scans (doi:10.7554/elife.80360).

B1: Twister Ribozyme (parent)
chain: AACACUGCCAAUGCCGGUCCCAAGCCCGGAUAAAAGUGGAGGGGGCGG

The variants in this series derive from B1. The series is described as follows: self-cleavage, relative activity (ratio to wild type); higher = more cleavage; co-transcriptional.
For the variant AACACUGUCAAUGCCGGUCCCAAGCCCGGAUAAAAGUGGAGUGGGCGG, the self-cleavage came out at 0.133. Consider AACACUGCCCAUGCCGGUCCCAAGCCCGGAUAAAAGUGGAGGGGGCGA, for which the self-cleavage is 0.822. In the case of AACACUGCCAAUGCCGGUCCCAAACCGGGAUAAAAGUGGAGGGGGCGG it was 0.105. As for AACACUGCCAAUGCCGGUCCCAAGCCCGGAUAGCAGUGGAGGGGGCGG, the self-cleavage came to 0.108. As for AACACUGCCAAUGCCGGUCCCAACACCGGAUAAAAGUGGAGGGGGCGG, the self-cleavage was determined as 0.325. In the case of AACACUGCCAAUGCCGGUCCCAAGCCCGUAUAAAAGUGCAGGGGGCGG it was 0.116; in that of AAGAAUGCCAAUGCCGGUCCCAAGCCCGGAUAAAAGUGGAGGGGGCGG, 0.117. In the case of AACACUGCUAAUGCCGGUCCCAAGCCCGGACAAAAGUGGAGGGGGCGG it was 0.708; in that of ACCACUGCCAAUGCCGGUCCCAAGCCCGGAUACAAGUGGAGGGGGCGG, 0.0306; in that of AACACUGCCCAUGCCGCUCCCAAGCCCGGAUAAAAGUGGAGGGGGCGG, 0.125. For AACACUGCCAAUGCCGGUCCCAAGCCCGGAUAAAAAUGGAGGGCGCGG, the self-cleavage was determined as 0.762.

For AACACUGCCAAUGGCGGUCCCAAGCCCGGAUAAAAGUGGAGGGAGCGG, the self-cleavage came out at 0.174. For AAAACUGCCAAUGCCGGUCCAAAGCCCGGAUAAAAGUGGAGGGGGCGG, the self-cleavage was 0.0913. For AACACUGCCAAUGCCGGUCCCAAGACCGGAUAAAAGUGGAGGGGGCAG, the self-cleavage turned out to be 0.102.

In the case of AACACUGCCAAUGCCGGUCCCAAGCCCGGAUAAAAGCGGAGGGGGGGG, the self-cleavage was 0.706. As to AACACUGCCAAUGCCGGUCCCAAGCCCGGAUAGAAGUGGAGGGGGAGG, the self-cleavage came out at 0.894. For the variant AACACUGCCAAAGCCGGUCCCAAUCCCGGAUAAAAGUGGAGGGGGCGG, the self-cleavage is 0.172. As to AACACUGCCAAUGCCGGUCCCACGCCCGAAUAAAAGUGGAGGGGGCGG, the self-cleavage amounted to 0.196. With AACACUGCCAAUGCCGGUUCCAAGCCCGGAUAAAAGUUGAGGGGGCGG, the self-cleavage is 0.36. In the case of AACACUGCCAAUGCCGGUUCCAAGCCCGGAUAAAAGUAGAGGGGGCGG it was 0.855; in that of AACACUGCCAAUGCCGCUCCCAAGCCCGGAUAAAAGUGGAGGUGGCGG, 0.0878.

As to AACACUGCCAAUGCCGGUCCCAAGCCCGGAGAAAUGUGGAGGGGGCGG, the self-cleavage amounted to 1.01.

Regarding AACACGGCCAAUGCCGGUCCCAAGCCCCGAUAAAAGUGGAGGGGGCGG, the self-cleavage came out at 0.16.

As to AACACUGCCAAUCCCGGACCCAAGCCCGGAUAAAAGUGGAGGGGGCGG, the self-cleavage amounted to 0.067. In the case of AACACUGCCAAUGCCGGUCCCAAGCCCCCAUAAAAGUGGAGGGGGCGG, the self-cleavage came to 0.865.

AACACUGCCAAUGACGGUCCCAAGCCCGGCUAAAAGUGGAGGGGGCGG: the self-cleavage was found to be 0.819. As to AACACUGCCAAUGGCAGUCCCAAGCCCGGAUAAAAGUGGAGGGGGCGG, the self-cleavage worked out at 0.0993. For AACACUUCCAAUGCCGGUCCCAAGCCCGGAUAAAAGUGGAGGGGGGGG, the self-cleavage was determined as 0.047. In the case of AACACUGCCAAUGCCGGCCCCAAGCCCGGAUAAAAGUGGAGGGGGCGA it was 0.368; in that of AACACGGCCAAUGCCGGUCCCAAGCCCGGAUAAAAGUGGAUGGGGCGG, 0.129. With AACCCUGCCAAUGCCGGUCCCAAGCCCGGAUAAACGUGGAGGGGGCGG, the self-cleavage came to 0.301. Take AACACUGCCAAUGCCGGUCACAAGCCGGGAUAAAAGUGGAGGGGGCGG: the self-cleavage came out at 0.0759.

For AACACUGCCAAUGCCGGUCCCAAGACCCGAUAAAAGUGGAGGGGGCGG, the self-cleavage came out at 0.146. As to AACACUACCAAUGCCGGUCCCAAGCCCGGAUAAAACUGGAGGGGGCGG, the self-cleavage is 0.113.

Take AACACUGCCAAUGCCGGUCCCAAGCCCGGAUAAAAGUGGAGGGGUGGG: the self-cleavage is 0.52. In the case of AACACUGCCAAUGUCGGUCUCAAGCCCGGAUAAAAGUGGAGGGGGCGG it was 0.942.

In the case of AACACUGCCAAUGGCGGUCCCAAGCCCGGAUAAAAGUGCAGGGGGCGG, the self-cleavage is 0.0468.

Turning to AAGACUGCCAAUGUCGGUCCCAAGCCCGGAUAAAAGUGGAGGGGGCGG, the self-cleavage was determined as 0.47. Consider AACACUGCCAACGCCGGUCCCAAGCCCGGAUAAAAGUGGAGGGGACGG, for which the self-cleavage was found to be 0.788.

Turning to AACACUGCCAAUGCCGGUCCUAAGCCCGGAUAAAUGUGGAGGGGGCGG, the self-cleavage amounted to 0.115.

Consider AACACUGCCAAUGCCGGUCCCAGGCCCGGAUAAAAGUGGUGGGGGCGG, for which the self-cleavage worked out at 0.125. With AACACUGCCAAUGCCGGCCCCAAGCCCGGAUAAAAGUGGAGGGGCCGG, the self-cleavage stood at 0.132. For AACACUGCCAAUGCCGGUACCAAGCCCGGAGAAAAGUGGAGGGGGCGG, the self-cleavage turned out to be 0.334.

Consider AUCACUGCCAAUGCCGAUCCCAAGCCCGGAUAAAAGUGGAGGGGGCGG, for which the self-cleavage is 0.131. Regarding AACACUGCCAAUGCCGGUCCCAAGCCCAGAUAUAAGUGGAGGGGGCGG, the self-cleavage turned out to be 0.707.

With AACACUCACAAUGCCGGUCCCAAGCCCGGAUAAAAGUGGAGGGGGCGG, the self-cleavage is 0.0479. For the variant AACACUGCCAAUGCCGUUCCCGAGCCCGGAUAAAAGUGGAGGGGGCGG, the self-cleavage was found to be 0.103. As for UACACUGCCAAUGCCGGUCCCAAGCCCGGAUAAAAGGGGAGGGGGCGG, the self-cleavage amounted to 0.0556.

AGCACUGCCAAUGCCGGUCCCAAGCCCGGAUAAAAGUGGAGGGGGGGG: the self-cleavage was determined as 0.431. Consider AACACUGGCAAUGCCGGUUCCAAGCCCGGAUAAAAGUGGAGGGGGCGG, for which the self-cleavage amounted to 0.113. Consider AAAACUGCCAAUGCCGGUCCCAAGCCCGGAUAAAAGUGGAGGGGGUGG, for which the self-cleavage was determined as 0.244. In the case of AACACUGCCAAUGCCGGUCCCAAGCCCGGAUAAUAGUGGAGGGGGCGA it was 0.703; in that of AACACUGCCAAUGCCGGUCCCAAGCCCGGAUCAAAGUGGAGGGGGGGG, 1.03.

As to AACACUGCCAAUGCCGGUCCCAAGCCCGGCUAAAACUGGAGGGGGCGG, the self-cleavage is 0.0822.
